According to US8076085:

Experiments:
Experiment in all cases: inhibition ELISA: serum preincubated with soluble peptide, then preS1 (94-117) coated plate
[1] = target: IgG anti-preS1 (94-117) in serum from a HBeAg+ chronic patient (FIG. 7)
[2] = target: IgG anti-preS1 (94-117) in serum of HBeAg+ patient with acute resolving HB-infection (FIG. 5b)
[3] = target: IgG anti-preS1 (94-117) in serum of HBeAg+ patient with acute resolving HB-infection (FIG. 6a)
[4] = target: IgG anti-preS1 (94-117) in serum of HBeAg+ patient with acute resolving HB-infection (FIG. 6b)
[5] = target: IgG anti-preS1 (94-117) in serum of one HBeAg+ patient with chronic HBV-infection who later spontaneously seroconverted to anti-HBe (FIG. 5a)

Measured: percent inhibition

PASTNRQSGRQPTPISPPLRDSHP [preS1#94-117 peptide (HBV subtypes adw, adw2 and two of three adr subtypes)]
100%: all assays above
